Experimental data published in US20240255522A1.

Legend:
[1] = molecular target: MHCII (DR); assay: competition
[2] = molecular target: MHCII (DR); assay: competition ELISA
[3] = molecular target: HLA-DRB1*01:01 MHCII molecule (human); assay: competition ELISA; 50 nM huCLIP-bio
[4] = molecular target: HLA-DRB1*01:01 MHCII molecule (human); assay: competition ELISA; 25 nM huCLIP-bio
[5] = molecular target: HLA-DRB1*01:01 MHCII molecule (human); assay: competition ELISA; 25 nM, pp65 reference
[6] = molecular target: HLA-DRB1*01:01 MHCII molecule (human); assay: competition ELISA; 50 nM, pp65 reference

Q: LASV RNAP was tested. Which IC50 [1] did it give?
A: 517 nM

Q: For LCMV NP (201-215), which IC50 [1] is on record?
A: 1220 nM

Q: With VV HP (23-37) as the substance, how does the IC50 [2] read?
A: 2020 nM

Q: How did the IC50 [2] turn out when OVA (323-339) was run?
A: 10700 nM

Q: With LCMV RNAP as the substance, how does the IC50 [1] read?
A: 287 nM

Q: With mCLIP as the substance, how does the IC50 [3] read?
A: 429 nM

Q: What about the IC50 [4] of the same substance?
A: 162 nM

Q: And the IC50 [5]?
A: 3.47 nM

Q: What about the IC50 [6] of the same substance?
A: 7.83 nM

Q: What about the IC50 [2] of the same substance?
A: 268 nM

Q: How did the IC50 [2] turn out when VETF (275-289) was run?
A: 983 nM

Q: Which IC50 [2] does the source give for MOG (35-55) here?
A: 2050 nM
